Columns and labels:
PD-L1 = PD-L1 (UniProt Q9NZQ7)
PD-L1-FLAG = PD-L1-FLAG (UniProt Q9NZQ7)
PD-L2-FLAG = PD-L2-FLAG (UniProt Q9BQ51)
Chain of PD-L2-FLAG (Q9BQ51 20-273): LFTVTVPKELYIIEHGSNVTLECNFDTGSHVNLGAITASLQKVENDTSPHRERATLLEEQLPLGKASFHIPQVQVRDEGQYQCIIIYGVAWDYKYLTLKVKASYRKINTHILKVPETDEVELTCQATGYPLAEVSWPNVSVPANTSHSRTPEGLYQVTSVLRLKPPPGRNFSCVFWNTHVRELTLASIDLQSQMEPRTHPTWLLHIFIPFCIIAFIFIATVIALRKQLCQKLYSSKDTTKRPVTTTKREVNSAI

Chain of E3 ligase ITCH (chain, as listed by the source): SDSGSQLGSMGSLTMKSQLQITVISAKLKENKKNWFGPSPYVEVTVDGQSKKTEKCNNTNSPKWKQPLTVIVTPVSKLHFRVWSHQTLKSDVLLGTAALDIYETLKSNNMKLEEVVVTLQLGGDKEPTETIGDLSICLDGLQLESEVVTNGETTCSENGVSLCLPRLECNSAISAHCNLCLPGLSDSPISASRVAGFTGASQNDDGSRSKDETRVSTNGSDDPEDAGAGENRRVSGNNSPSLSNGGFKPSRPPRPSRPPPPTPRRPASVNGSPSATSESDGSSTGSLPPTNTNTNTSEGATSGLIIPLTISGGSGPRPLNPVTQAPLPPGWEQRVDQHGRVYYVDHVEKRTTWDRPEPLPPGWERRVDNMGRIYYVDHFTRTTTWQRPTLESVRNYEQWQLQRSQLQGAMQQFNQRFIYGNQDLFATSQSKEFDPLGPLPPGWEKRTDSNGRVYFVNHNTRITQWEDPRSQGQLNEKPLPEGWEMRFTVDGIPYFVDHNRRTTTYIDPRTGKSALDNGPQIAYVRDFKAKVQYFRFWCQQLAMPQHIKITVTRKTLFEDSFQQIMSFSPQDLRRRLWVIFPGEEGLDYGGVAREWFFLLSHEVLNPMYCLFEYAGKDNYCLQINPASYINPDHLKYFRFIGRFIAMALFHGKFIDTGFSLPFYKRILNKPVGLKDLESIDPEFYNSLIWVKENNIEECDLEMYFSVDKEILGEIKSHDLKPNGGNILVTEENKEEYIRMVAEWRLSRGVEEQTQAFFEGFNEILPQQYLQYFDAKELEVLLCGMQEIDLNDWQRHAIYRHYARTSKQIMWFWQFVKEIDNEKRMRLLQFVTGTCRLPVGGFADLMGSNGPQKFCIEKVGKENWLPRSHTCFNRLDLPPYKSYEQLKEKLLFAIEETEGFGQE
Chain of PD-L1-FLAG (Q9NZQ7 19-290): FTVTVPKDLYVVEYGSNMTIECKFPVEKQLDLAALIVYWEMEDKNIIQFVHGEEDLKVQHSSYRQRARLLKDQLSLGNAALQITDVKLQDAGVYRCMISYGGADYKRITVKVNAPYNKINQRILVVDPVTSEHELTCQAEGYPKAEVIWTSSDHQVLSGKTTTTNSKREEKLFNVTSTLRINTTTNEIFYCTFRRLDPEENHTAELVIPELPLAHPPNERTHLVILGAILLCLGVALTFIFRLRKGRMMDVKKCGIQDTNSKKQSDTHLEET
Chain of PD-L1 (Q9NZQ7 19-290): as above

For E3 ligase ITCH, the “poly-ubiquitination of endogenous PD-L1 (anti-PD-L1 IP, Western blot of ubiquitin)” value (PD-L1) was “knockdown of endogenous ITCH reduced PD-L1 poly-ubiquitination (FIGS. 2F, 2G), while over-expression of ITCH increased PD-L1 poly-ubiquitination (FIG. 2H)”, the “poly-ubiquitination (anti-FLAG IP, Western blot of ubiquitin)” value (PD-L1-FLAG) was “co-transfection of ITCH with either PD-L1-FLAG (FIG. 2E) or PD-L2-FLAG (FIG. 9I) led to poly-ubiquitination of PD-L1 or PD-L2, respectively” and the “ubiquitination sites by mass spectrometry” value (PD-L1-FLAG) was “Mass spectrometry analysis identified lysine 46 (K46) and K162 of PD-L1 as major ubiquitination sites caused by ITCH over-expression in 293T cells”. The “poly-ubiquitination (anti-FLAG IP, Western blot of ubiquitin)” value (PD-L2-FLAG) was “co-transfection of ITCH with either PD-L1-FLAG (FIG. 2E) or PD-L2-FLAG (FIG. 9I) led to poly-ubiquitination of PD-L1 or PD-L2, respectively”.

Source: patent US20250101108
